Assay [1] concerns the target human Bax (two-hybrid partner) (human, UniProt Q07812). Description: yeast two-hybrid.
For assay [2], the target named is GAL4 DNA binding domain alone (vectors pMA424 or pAS1) (yeast, UniProt P04386). The assay can be described thus: yeast two-hybrid with the empty GAL4 DNA binding domain vectors.
For assay [3], the target named is T1, yeast SNF1 protein bait (yeast, UniProt P06782).
T1 sequence: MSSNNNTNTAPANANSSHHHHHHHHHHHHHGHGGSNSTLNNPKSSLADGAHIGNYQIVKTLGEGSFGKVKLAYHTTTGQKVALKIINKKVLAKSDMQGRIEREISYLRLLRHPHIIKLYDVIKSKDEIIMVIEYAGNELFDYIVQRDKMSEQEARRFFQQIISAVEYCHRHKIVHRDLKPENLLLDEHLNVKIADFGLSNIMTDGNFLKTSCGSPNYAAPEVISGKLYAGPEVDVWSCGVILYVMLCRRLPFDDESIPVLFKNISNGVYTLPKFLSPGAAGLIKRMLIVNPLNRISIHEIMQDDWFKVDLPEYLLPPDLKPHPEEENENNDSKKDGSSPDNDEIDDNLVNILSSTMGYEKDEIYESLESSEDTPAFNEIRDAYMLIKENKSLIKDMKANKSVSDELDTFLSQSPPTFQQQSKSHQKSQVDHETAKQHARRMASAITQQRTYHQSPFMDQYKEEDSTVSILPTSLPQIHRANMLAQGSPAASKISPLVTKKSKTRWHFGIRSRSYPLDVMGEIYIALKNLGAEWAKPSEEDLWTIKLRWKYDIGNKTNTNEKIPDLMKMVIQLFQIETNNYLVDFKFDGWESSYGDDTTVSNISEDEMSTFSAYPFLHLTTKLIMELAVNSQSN
The assay can be described thus: yeast two-hybrid in strain Y153, X-gal (W = White). The procedure: To determine the specificity of the two hybrid interaction, the three clones, 22, 44 and 91, were tested against baits expressing several heterologous proteins (Table 1). Among the various heterologous protein baits used, the adenovirus E3 11.6 kD protein is of particular interest as that protein localizes on the nuclear envelope region and has an internal hydrophobic domain like the E1B 19 kD protein (Scaria et al., 1992).
B = Blue W = White [@]Interactions with all baits except the yeast SNF1 protein were carried out in yeast Strain GGY1::171. Interaction with SNF1 was carried out in yeast strain Y153. *Colonies which appeared on -his, -trp, -leu plates after 6–8 days. Results of X-gal staining are indicated as B, blue; W, white; or ND, not done. The heterologous baits pLAM5 (human lamin) and pAS-SNF1 (yeast SNF1) have been described (Bartel et al., 1993, Durfee et al., 1993). Baits pHIV-1 Rev, pHIV-1 Tat, pHIV-1 Nef and pHTLV-1 Rex expressing the various HIV or HTLV regulating proteins were constructed as described herein and obtained from Cleta D'Sa Eipper and T. Subramanian, St. Louis University Medical Center, St. Louis, MO.

B1: Nip1 (19K-interacting protein 1), protein coded by cDNA clone 22, tagged with the GAL4 activation domain (other)
chain: PQDVHVRICNQEIVKFDLEVKALIQDIRDCSGPLSALTELNTKVKEKFQQLRHRIQDLEQLAKEQDKESEKQLLLQEVENHKKQMLSNQASWRKANLTCKIAIDNLEKAELLQGGDLLRQRKTTKESLAQTSSTITESLMGISRMMAQQVQQSEEAMQSLVTSSRTILDANEEFKSMSGTIQLGRKLITKYNRRELTDKLLIFLALRLFLATVLYIVKKRLFPFL
On to B1, for which the binding result in assay [1] and in assay [2] was “no binding” throughout.

B2: Nip2 (19K-interacting protein 2), protein coded by cDNA clone 44, tagged with the GAL4 activation domain (other)
chain: MEGVELKEEWQDEDFPIPLPEDDSIEADILAITGPEDQPGSLEVNGNKVRKKLMAPDISLTLDPSDGSVLSDDLDESGEIDLDGLDTPSENSNEFEWEDDLPKPKTTEVIRKGSITEYTAAEEKEDGRRWRMFRIGEQDHRVDMKAIEPYKKVISHGGYYGDGLNAIVVFAVCFMPESSQPNYRYLMDNLFKYVIGTLELLVAENYMIVYLNGATTRRKMPSLGWLRKCYQQIDRRLRKNLKSLIIVHPSWFIRTLLAVTRPFISSKFSQKIRYVFNLAELAEL
For B2, the binding result in assay [3] and in assay [2] was “no binding” throughout.

Source of the values: patent publication US5858678, “Apoptosis-regulating proteins” (St. Louis University, dated 1999).
